Assay results: article PMC5992170, “Modular ssDNA binding and inhibition of telomerase activity by designer PPR proteins”

How the values were obtained:
[1] = tested on: cPPR-NRE (synthetic construct); assay: EMSA; details: dU as printed (AUUGUAUAUA); EMSA: 10 mM HEPES pH 8.0, 1 mM EDTA, 50 mM KCl, 2 mM DTT, 0.1 mg/ml BSA, 0.02% Tween-20, room temperature 30 min, 0.83 uM probe, 0-10 uM protein (Kd values …)
cPPR-Telo1 = molecular target: T1, cPPR-Telo1 (synthetic construct, UniProt PDB:5ORQ_1 1-364); assay: EMSA; EMSA: 10 mM HEPES pH 8.0, 1 mM EDTA, 50 mM KCl, 2 mM DTT, 0.1 mg/ml BSA, 0.02% Tween-20, room temperature 30 min, 0.83 uM probe, 0-10 uM protein (Kd values only in Supplementary Fig. 2 graphic); details: protein: recombinant, tags: GST-His (pETM30), label: 5'-fluorescein via hexaethyleneglycol spacer
T1 chain: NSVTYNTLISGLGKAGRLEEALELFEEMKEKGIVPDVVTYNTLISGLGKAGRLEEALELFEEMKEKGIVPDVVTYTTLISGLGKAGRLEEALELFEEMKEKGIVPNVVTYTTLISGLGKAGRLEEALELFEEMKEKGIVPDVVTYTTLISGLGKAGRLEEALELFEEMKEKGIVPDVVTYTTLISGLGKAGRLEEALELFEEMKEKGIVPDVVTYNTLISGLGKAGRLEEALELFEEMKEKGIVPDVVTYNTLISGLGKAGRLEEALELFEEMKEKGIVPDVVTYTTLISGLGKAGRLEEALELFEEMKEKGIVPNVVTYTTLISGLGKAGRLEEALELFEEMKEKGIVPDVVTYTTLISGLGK

cPPR-Telo1 (tag removed) = molecular target: T2, cPPR-Telo1 (tag removed) (synthetic construct, UniProt PDB:5ORQ_1 1-364); assay: X-ray crystallography (1.95 A); pH 4.6, 20 mM CaCl2; EMSA: 10 mM HEPES pH 8.0, 1 mM EDTA, 50 mM KCl, 2 mM DTT, 0.1 mg/ml BSA, 0.02% Tween-20, room temperature 30 min, 0.83 uM probe, 0-10 uM protein (Kd values only in Supplementary Fig. 2 graphic); details: protein: recombinant; tags: none (GST-His removed by TEV); single strand
T2 chain: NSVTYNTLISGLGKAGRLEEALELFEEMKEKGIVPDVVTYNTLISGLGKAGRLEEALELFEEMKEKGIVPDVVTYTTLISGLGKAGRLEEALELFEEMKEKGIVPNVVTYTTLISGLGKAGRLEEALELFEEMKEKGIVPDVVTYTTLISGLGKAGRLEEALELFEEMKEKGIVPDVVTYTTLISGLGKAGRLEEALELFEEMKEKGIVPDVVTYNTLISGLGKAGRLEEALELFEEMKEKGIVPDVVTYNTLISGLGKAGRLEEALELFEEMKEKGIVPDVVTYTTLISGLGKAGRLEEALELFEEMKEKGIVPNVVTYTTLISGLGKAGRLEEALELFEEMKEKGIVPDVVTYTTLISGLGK

In the case of AUUGUAUAUA [NRE ssDNA], the binding signal (fold lower affinity than NRE RNA) [1] is reported as 3.

B1: Primer GG-a (Telo-ssDNA-GG) (structured_DNA)
DNA: GGTTAGGGTTAGGGTTAGGG
B1: binds (cPPR-Telo1; potential intramolecular G4).

B2: cPPR-Telo1 target ssDNA (ssDNA)
DNA: TTAGGGTTAG
B2: binds (cPPR-Telo1 (tag removed)).

B3: Telo-ssDNA (ssDNA)
DNA: GGTTAGGGTTAG
B3: binds (cPPR-Telo1; single strand).

B4: Primer a (ssDNA)
DNA: TTAGGGTTAGGGTTAGGG
B4: binds (cPPR-Telo1; single strand, cannot form G4).
